Earlier results, collected in publication PMC3345106.

Target: Cys34 (UniProt position 58, QYLQQCPFEDH)
Conditions: HSA thiol in earlier reports, compared by the authors with their FA-free value

Substance: Human serum albumin (HSA) (Homo sapiens)
- pKa: ~8
